# Measured values published in patent US20030040614.
# Tested on: GsuI restriction endonuclease
# Conditions: methylation of top strand; bottom strand 664; B+ buffer, 30 uM AdoMet, 37 C 3 h
sequence,measurement,value
AGTTCTGGAGCATCGTTCACCGGTTACAAC / TGGTTGTAACCGGTAACGGATGCTCCAGAACTTCTC [duplex #1 GsuI site],activity (3H radioactivity (units not stated)),13200
